{
  "source": "patent US20190309274",
  "about": "“IL-10 RECEPTOR ALPHA HOMING ENDONUCLEASE VARIANTS, COMPOSITIONS, AND METHODS OF USE” (bluebird bio, Inc., published 2019)",
  "binders": {"B1": {"name": "IL-10Rα exon 2 HE target site (dsDNA)", "DNA 1": "GGTGGAAAAATTCTGCTTCAAA", "DNA 2": "TTTGAAGCAGAATTTTTCCACC"}},
  "key": {"[1]": {"target": "T1, IL-10Rα.G7.A3 I-OnuI homing endonuclease variant (Artificial (Ophiostoma novo-ulmi I-OnuI …))", "T1 chain": "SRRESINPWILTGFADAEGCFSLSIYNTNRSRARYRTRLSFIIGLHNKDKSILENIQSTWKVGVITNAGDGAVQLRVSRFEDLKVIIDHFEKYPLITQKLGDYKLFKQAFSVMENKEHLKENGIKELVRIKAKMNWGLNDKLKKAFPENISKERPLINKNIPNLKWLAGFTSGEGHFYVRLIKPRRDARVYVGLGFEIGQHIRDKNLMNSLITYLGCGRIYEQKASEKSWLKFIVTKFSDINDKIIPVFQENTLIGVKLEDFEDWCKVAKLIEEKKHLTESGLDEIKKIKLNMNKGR", "assay": "cell_activity; chromosomal mCherry reporter in HEK 293T; variant isolated by display sorting under 50 pM affinity conditions", "protocol": "The activity of reprogrammed I-OnuI HEs that target exon 2 of the IL-10Rα gene was measured using a chromosomally integrated fluorescent reporter system (Certo et. al., 2011). Fully reprogrammed I-OnuI HEs that bind and cleave the IL-10Rα target sequence were cloned into mammalian expression plasmids and then individually transfected into a HEK 293T […] cell line that was reprogrammed to contain the IL-10Rα target sequence upstream of an out-of-frame gene encoding the fluorescent mCherry protein. Cleavage of the embedded target site by the HE and the subsequent accumulation of small insertions or deletions, caused by DNA repair via the non-homologous end joining (NHEJ) pathway, results in approximately one out of three repaired loci placing the fluorescent reporter gene back “in-frame”. mCherry fluorescence is therefore a readout of endonuclease activity at the chromosomally embedded target sequence. […] FIG. 3.\nA secondary I-OnuI variant library was generated by performing random mutagenesis on one of the reprogrammed I-OnuI HEs that targets the IL-10Rα target site, identified in the initial reporter screen (IL-10Rα.G7, SEQ ID NO: 6). In addition, display-based flow sorting was performed under more stringent affinity conditions (50 pM) to isolate variants with improved binding characteristics. FIG. 3. […]"}, "[2]": {"target": "T2, IL-10Rα.G7.A3.G7 I-OnuI homing endonuclease variant (Artificial (Ophiostoma novo-ulmi I-OnuI …))", "T2 chain": "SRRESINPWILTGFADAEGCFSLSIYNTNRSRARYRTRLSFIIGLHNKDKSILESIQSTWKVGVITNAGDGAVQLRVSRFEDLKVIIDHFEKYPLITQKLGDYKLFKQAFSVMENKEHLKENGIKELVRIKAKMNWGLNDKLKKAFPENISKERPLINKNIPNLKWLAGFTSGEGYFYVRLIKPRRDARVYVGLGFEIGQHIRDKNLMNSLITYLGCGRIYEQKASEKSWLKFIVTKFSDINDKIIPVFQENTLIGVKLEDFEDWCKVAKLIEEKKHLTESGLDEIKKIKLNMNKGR", "assay": "flow; yeast surface display substrate titration; stated as sub-nanomolar affinity, exact value only in figure", "conditions": "tags: yeast surface display"}},
  "data": [
    {"binder": "B1", "values": [
      {"measurement": "activity", "setting": "[1]", "value": "~2", "unit": "fold vs IL-10Rα.G7"},
      {"measurement": "Kd", "setting": "[2]", "value": "< 1", "unit": "nM"}
    ]}
  ]
}
